In US20040005636A1, “Method for obtaining the binding affinities of a peptide library to a protein” (priority 2002, published 2004) one finds Kd data, which are given here for ten molecules.

The target of one assay is T1, hERα-LBD (Homo sapiens, UniProt P03372).
T1 construct: The receptor ERα-LBD or TRβ-LBD, expressed using reported protocols; made in house
T1 sequence (P03372 311-547 limits assumed): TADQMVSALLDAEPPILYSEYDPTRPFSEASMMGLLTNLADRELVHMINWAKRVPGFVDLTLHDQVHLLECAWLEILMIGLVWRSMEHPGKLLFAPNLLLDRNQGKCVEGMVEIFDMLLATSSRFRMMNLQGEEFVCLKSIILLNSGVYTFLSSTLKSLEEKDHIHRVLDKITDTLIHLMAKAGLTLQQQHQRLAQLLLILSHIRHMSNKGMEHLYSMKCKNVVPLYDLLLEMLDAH
In words: Fluorescence polarization assay of coregulator peptide binding to ERα-LBD. The note with it: ERα-LBD in the presence of estradiol; read-out: Dissociation constant for ERα, Estradiol. The procedure: The peptide library synthesized in Example 1 was assayed with ERα or TRβ receptor. Library members were kept at a constant concentration of 10 nM. A ligand was optionally added to the nuclear hormone receptor.
The receptor ERα-LBD or TRβ-LBD, expressed using reported protocols (for TR see, e.g., Darimont et al., Genes Dev., 12(21):3343-56, (1998); and for ER, see, e.g., Shiau et al., Cell, (1998), 95(7):927-937), was used. The concentration of protein varied between 0.001-20 μM in the following way. In 96 well plates, hTRβ-LBD or hERα-LBD was serially diluted from 40 μM to 0.002 μM in binding buffer (50 mM Sodium Phosphate, 150 mM NaCl, pH 7.2, 1 mM DTT, 1 mM EDTA, 0.01% NP40, 10% glycerol), containing 200 μM ligand (T3, for TRβ, or estradiol, diethylstilbestrol, genistein or tamoxifen for ERα).
(§1) Subsequently 10 μL of diluted protein was added to 10 μL of fluorescent coregulator peptide (20 nM) in 384-well plates yielding final protein concentrations of […] and 10 nM fluorescent peptide concentration. The samples were allowed to equilibriate for 30 minutes. Binding was then measured using fluorescence polarization (excitation λ at 485 nm, emission λ at 530 nm) on an Analyst AD (available from Molecular Devices).
All experiments were carried out in quadruplicate, with each iteration containing the positive and negative controls, and 10-12 dose points. The data were then fit using Klotz plots to determine IC50 values using nonlinear regression analysis that fits the data to a modification of the model of Heyduk and Lee. (Heyduk et al., Proc. Natl. Acad. Sci., (1990), 1774; Heyduk et al., Nature, (1993), 364, 6437; Heyduk et al., Methods Enzymol., 274, 492. Further analysis was conducted using Hill and Scatchard plots to confirm number and homogeneity of binding sites as discussed hereinbelow.
FIG. 6 illustrates direct binding of SRC2-2 to ERα-LBD in the presence of the ligands estradiol, diethylstilbestrol and genistein. […] Measured dissociation constants for binding of members of the SRC peptide library to ERα, in the presence of 3 different ligands, are illustrated in Table 4 wherein the binding units are μM. Table 5 illustrates a comparison of binding constants (μM) for SRC peptides with the TRβ receptor in the presence of thyroid hormone T3, and the ERα receptor in the presence of estradiol.

For assay [1], the target named is T2, hERα-LBD (ligand binding domain of estrogen receptor α) (human, UniProt P03372 297-554).
T2 construct: Assayed with estradiol, diethylstilbestrol, genistein or tamoxifen present; the ligand is named under assay in each row
T2 sequence (looked up): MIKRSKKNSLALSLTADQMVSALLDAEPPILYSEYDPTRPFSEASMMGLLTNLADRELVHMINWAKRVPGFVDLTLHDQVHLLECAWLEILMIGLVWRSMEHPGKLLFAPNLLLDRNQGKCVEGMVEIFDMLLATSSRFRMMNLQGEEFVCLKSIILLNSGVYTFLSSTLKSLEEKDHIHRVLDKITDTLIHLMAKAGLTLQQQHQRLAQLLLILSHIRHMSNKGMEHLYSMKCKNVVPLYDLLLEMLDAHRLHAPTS
Nature of the assay: fluorescence polarization, labelled peptide 10 nM, hERα-LBD titrated, genistein present. On the procedure: (§2) The concentration of protein varied between 0.001-20 μM in the following way. In 96 well plates, hTRβ-LBD or hERα-LBD was serially diluted from 40 μM to 0.002 μM in binding buffer (50 mM Sodium Phosphate, 150 mM NaCl, pH 7.2, 1 mM DTT, 1 mM EDTA, 0.01% NP40, 10% glycerol), containing 200 μM ligand (T₃, for TRβ, or estradiol, diethylstilbestrol, genistein or tamoxifen for ERα).
as §1
(§3) All experiments were carried out in quadruplicate, with each iteration containing the positive and negative controls, and 10-12 dose points. The data were then fit using Klotz plots to determine IC₅₀ values using nonlinear regression analysis that fits the data to a modification of the model of Heyduk and Lee. (Heyduk et al., Proc. Natl. Acad. Sci., (1990), 1774; Heyduk et al., Nature, (1993), 364, 6437; Heyduk et al., Methods Enzymol., 274, 492. Further analysis was conducted using Hill and Scatchard plots to confirm number and homogeneity of binding sites as discussed hereinbelow.
Background: Polarisation of emitted light reports the rotation of a fluorescent probe.

The target of assay [2] is T2, hERα-LBD (ligand binding domain of …). Nature of the assay: fluorescence polarization, labelled peptide 10 nM, hERα-LBD titrated, diethylstilbestrol present. The procedure:
as §2, §1, §3

The target in assay [3] is T3, hTRβ-LBD (ligand binding domain of thyroid hormone receptor β) (human, UniProt P10828 202-461).
T3 construct: Assayed with the small-molecule ligand T3 present
T3 sequence (looked up): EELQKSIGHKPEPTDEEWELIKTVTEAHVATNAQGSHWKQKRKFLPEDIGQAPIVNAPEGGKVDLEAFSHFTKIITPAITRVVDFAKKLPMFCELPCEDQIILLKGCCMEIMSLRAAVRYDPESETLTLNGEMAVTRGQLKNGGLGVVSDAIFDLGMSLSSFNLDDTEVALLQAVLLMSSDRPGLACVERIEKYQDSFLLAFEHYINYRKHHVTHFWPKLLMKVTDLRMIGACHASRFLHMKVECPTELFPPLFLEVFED
In words: fluorescence polarization, hTRβ-LBD titrated, T3 present; Table 3 prints >AL (assay limits) for this pair. The procedure:
as §2, §1, §3

Ends that are not written are not given here. Peptide text beside a SMILES is read from it. * marks the point of attachment. Fluorescein(5-NHCOCH2) = O=C(C*)Nc1ccc2c(c1)C(=O)OC21c2ccc(O)cc2Oc2cc(O)ccc21

Take `CC(C)C[C@H](NC(=O)[C@H](CCC(N)=O)NC(=O)[C@@H](NC(=O)[C@H](CC(C)C)NC(=O)[C@H](CCCCN)NC(=O)[C@H](Cc1c[nH]cn1)NC(=O)[C@H](CO)NC(=O)[C@@H](NC(=O)[C@H](CCC(N)=O)NC(=O)[C@H](CO)NC(=O)[C@H](Cc1ccc(O)cc1)NC(=O)[C@@H](N)CSCC(=O)Nc1ccc2c(c1)C(=O)OC21c2ccc(O)cc2Oc2cc(O)ccc21)[C@@H](C)O)C(C)C)C(=O)N[C@@H](CC(C)C)C(=O)N[C@H](C(=O)N[C@H](C(=O)N[C@H](C(=O)N[C@@H](C)C(=O)N[C@@H](CCC(=O)O)C(=O)N[C@@H](CCC(N)=O)C(=O)N[C@@H](CCC(N)=O)C(=O)O)[C@@H](C)O)[C@@H](C)O)[C@@H](C)O` [SRC1-1] (H-C(Fluorescein(5-NHCOCH2))YSQTSHKLVQLLTTTAEQQ-OH): the Kd on hERα-LBD came out at 1210 nM.
The same measure, in the same setting: in the case of `CC(C)C[C@H](NC(=O)[C@H](CC(=O)O)NC(=O)[C@H](CCCCN)NC(=O)[C@H](CCC(=O)O)NC(=O)[C@H](CC(=O)O)NC(=O)[C@H](CCCCN)NC(=O)[C@H](CC(=O)O)NC(=O)[C@H](CC(C)C)NC(=O)[C@H](CC(C)C)NC(=O)[C@H](Cc1ccc(O)cc1)NC(=O)[C@H](CCCNC(=N)N)NC(=O)[C@H](CC(C)C)NC(=O)[C@H](CC(C)C)NC(=O)[C@H](CCC(N)=O)NC(=O)[C@H](Cc1c[nH]cn1)NC(=O)[C@H](CC(=O)O)NC(=O)[C@H](CCCCN)NC(=O)[C@H](CO)NC(=O)[C@H](CCC(=O)O)NC(=O)[C@@H](N)CSCC(=O)Nc1ccc2c(c1)C(=O)OC21c2ccc(O)cc2Oc2cc(O)ccc21)C(=O)O` [SRC1-3] it was 2540 nM.
Turning to `CSCC[C@H](NC(=O)[C@H](CCC(N)=O)NC(=O)[C@H](CC(=O)O)NC(=O)[C@H](CO)NC(=O)[C@H](CCCCN)NC(=O)[C@@H](NC(=O)[C@@H](NC(=O)[C@H](CC(C)C)NC(=O)[C@H](CC(C)C)NC(=O)[C@H](CCC(N)=O)NC(=O)[C@H](CC(C)C)NC(=O)[C@H](CC(C)C)NC(=O)[C@H](CCCCN)NC(=O)[C@@H](NC(=O)[C@H](CCC(N)=O)NC(=O)CNC(=O)[C@H](CCCCN)NC(=O)[C@H](CO)NC(=O)[C@H](CC(=O)O)NC(=O)[C@@H](N)CSCC(=O)Nc1ccc2c(c1)C(=O)OC21c2ccc(O)cc2Oc2cc(O)ccc21)[C@@H](C)O)[C@@H](C)O)[C@@H](C)O)C(=O)O` [SRC2-1] (H-C(Fluorescein(5-NHCOCH2))DSKGQTKLLQLLTTKSDQM-OH), the Kd on hERα-LBD came out at 927 nM.
The same measure, in the same setting: in the case of `CC[C@H](C)[C@H](NC(=O)[C@H](CCCNC(=N)N)NC(=O)[C@H](Cc1c[nH]cn1)NC(=O)[C@H](CCCCN)NC(=O)[C@H](CCC(=O)O)NC(=O)[C@H](CCC(N)=O)NC(=O)[C@H](CC(C)C)NC(=O)[C@@H](N)CSCC(=O)Nc1ccc2c(c1)C(=O)OC21c2ccc(O)cc2Oc2cc(O)ccc21)C(=O)N[C@@H](CC(C)C)C(=O)N[C@@H](Cc1c[nH]cn1)C(=O)N[C@@H](CCCCN)C(=O)N[C@@H](CC(C)C)C(=O)N[C@@H](CC(C)C)C(=O)N[C@@H](CCC(N)=O)C(=O)N[C@@H](CC(N)=O)C(=O)NCC(=O)N[C@@H](CC(N)=O)C(=O)N[C@@H](CO)C(=O)N1CCC[C@H]1C(=O)N[C@@H](C)C(=O)O` [SRC3-2] (H-C(Fluorescein(5-NHCOCH2))LQEKHRILHKLLQNGNSPA-OH) it was 363 nM.
Take C(5‑iodoacetamidofluorescein)YSQTSHKLVQLLTTTAEQQ [SRC1-1 coregulator peptide]: the Kd was 5000 nM in assay [1], 853 nM in assay [2] and 100000 nM in assay [3].
In the case of C(5‑iodoacetamidofluorescein)DSKGQTKLLQLLTTKSDQM [SRC2-1 coregulator peptide], the results for the Kd in assay [1], in assay [2] and in assay [3] were 2600 nM, 896 nM and 100000 nM, respectively.
Taken in the same sequence, the figures for C(5‑iodoacetamidofluorescein)ESKDHQLLRYLLDKDEKDL [SRC1-3 coregulator peptide] were 2550 nM, 1460 nM and 100000 nM.
CLKEKHKILHRLLQDSSSPV (5-iodoacetamidofluorescein coupled to the amino terminal cysteine, also called SRC2-2 peptide) [SRC2-2 coregulator peptide]: the Kd in assay [1] stood at 569 nM; in assay [2] it was 277 nM.
Take C(5‑iodoacetamidofluorescein)LQEKHRILHKLLQNGNSPA [SRC3-2 coregulator peptide]: the Kd is 1030 nM in assay [1], 415 nM in assay [2] and 100000 nM in assay [3].
As for C(5‑iodoacetamidofluorescein)LTARHKILHRLLQEGSPSD [SRC1-2 coregulator peptide], the Kd in assay [1] was determined as 298 nM; in assay [2], 302 nM.
